± gives the standard deviation of the averaged measurements.
tested on: ATP; assay: switch fluorescence ratio, 500 uM ATP over buffer (Cy3 cluster intensity, sum of 5 cycles each) (fold (ratio)); higher = stronger signal-on switching upon ATP binding; sequences stand for … in TCGTCGGCAGCGTCAGATGTGTATAAGAGACAGTTTTTTTTTTTTTTTTTTTTTTTTT…TC; details: aptamer strand: ATP DNA aptamer (quencher-CACCTGGGGGAGTATTGCGGAGGAAGG + anchor), 100 nM annealed; ATP concentration: 500 uM
How it was run: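 For every switch-domain sequence, the fluorescence ratio is the mean of per-cluster values, each being summed target-cycle Cy3 intensity over summed buffer-cycle Cy3 intensity. Clusters outside 100-1000 RFU were excluded. On a modified Illumina MiSeq flow-cell, the Cy3-labelled switching-strand clusters were annealed to 100 nM quencher-labelled ATP aptamer, imaged in selection buffer and then after 15 min with 500 uM ATP at 22 °C. Five such cycles were run, with NaOH stripping and re-annealing between them.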
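Also: ATP exposure 15 min at 22 °C before imaging.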

Sequence | switch fluorescence ratio
TGTGGCAAAA | 1.015 ± 0.01
TGTGGCACGG | 0.966 ± 0.018
TGTGGCATGA | 0.9736 ± 0.0058
TGTGGCCCAC | 0.989 ± 0.017
TGTGGCGGTT | 1.015 ± 0.0077
TGTGGGAAAA | 1.02 ± 0.048
TGTGGGATCG | 0.97 ± 0.02
TGTGGGGGAA | 1.2 ± 0.31
TGTGGGGGTC | 0.965 ± 0.042
TGTGGGGTGG | 0.999 ± 0.025
TGTGGGTCGG | 0.968 ± 0.026
TGTGGGTGGT | 1.01 ± 0.018
TGTGGTAGCC | 1.022 ± 0.0018
TGTGGTATGG | 1.008 ± 0.0065
TGTGGTGTGC | 1.01 ± 0.022
TGTGGTTGCG | 1.01 ± 0.017
TGTGGTTTAC | 0.978 ± 0.017
TGTGTAAGAG | 0.9867 ± 0.0063
TGTGTAAGGT | 1.02 ± 0.025
TGTGTATGGC | 1.12 ± 0.19
TGTGTCGGTC | 1.07 ± 0.085
TGTGTGCGCG | 1.02 ± 0.043
TGTGTGGTGT | 0.993 ± 0.036
TGTGTTAAGG | 0.973 ± 0.011
TGTGTTAATA | 0.966 ± 0.013

Sequence | switch fluorescence ratio
TGTGTTAGGG | 0.979 ± 0.049
TGTGTTAGTA | 0.9602 ± 0.0053
TGTGTTCTAG | 1.005 ± 0.0046
TGTGTTGATG | 1.01 ± 0.028
TGTGTTGGGA | 0.98 ± 0.016
TGTGTTGGTG | 1.02 ± 0.033
TGTGTTGGTT | 0.9939 ± 0.0073
TGTGTTTCAA | 1.03 ± 0.013
TGTGTTTCTG | 1.02 ± 0.019
TGTGTTTTCT | 0.9862 ± 0.003
TGTGTTTTTT | 0.999 ± 0.02
TGTTAAAAAC | 1.082 ± 0.0085
TGTTAAAAAT | 1.01 ± 0.029
TGTTAAAATC | 0.984 ± 0.058
TGTTAAAGCG | 1.06 ± 0.049
TGTTAAAGGA | 0.991 ± 0.022
TGTTAAATGT | 1.005 ± 0.01
TGTTAAGATA | 1.02 ± 0.092
TGTTACCAGC | 1.01 ± 0.014
TGTTACGATA | 1.1181 ± 0.00041
TGTTAGGATT | 0.997 ± 0.014
TGTTAGGTGA | 1.07 ± 0.011
TGTTAGTGGT | 1.01 ± 0.023
TGTTATAATC | 1.08 ± 0.064
TGTTATAGAT | 0.987 ± 0.025

Sequence | switch fluorescence ratio
TGTTATAGTT | 1.01 ± 0.055
TGTTATATAT | 0.993 ± 0.032
TGTTATCAGC | 1 ± 0.047
TGTTATGTCC | 1 ± 0.023
TGTTATTTCA | 1.02 ± 0.0065
TGTTCATATA | 1.01 ± 0.021
TGTTCCGGGG | 1.013 ± 0.0063
TGTTCGGCGG | 1.02 ± 0.036
TGTTCTAAAG | 0.997 ± 0.025
TGTTCTAGA | 0.987 ± 0.053
TGTTCTGGGG | 1.01 ± 0.019
TGTTGAAATC | 1.01 ± 0.076
TGTTGAGCAT | 1.09 ± 0.089
TGTTGCAATA | 1.24 ± 0.4
TGTTGCATAG | 1.01 ± 0.047
TGTTGCGTGC | 1.03 ± 0.038
TGTTGGAGAA | 0.988 ± 0.011
TGTTGGAGTG | 1.003 ± 0.0044
TGTTGGCCAG | 0.9797 ± 0.0075
TGTTGGCGGG | 0.989 ± 0.015
TGTTGGGATG | 1.01 ± 0.02
TGTTGGGCTC | 0.989 ± 0.047
TGTTGGGGAT | 0.983 ± 0.029
TGTTGGGGGC | 1.03 ± 0.12
TGTTGGGTTG | 0.999 ± 0.015

Sequence | switch fluorescence ratio
TGTTGGTTAG | 0.989 ± 0.014
TGTTGGTTGC | 0.988 ± 0.033
TGTTGTATAA | 1.2 ± 0.26
TGTTGTATAT | 1 ± 0.023
TGTTGTCAAG | 1.01 ± 0.026
TGTTGTGCAG | 0.958 ± 0.03
TGTTGTGGGG | 0.96 ± 0.025
TGTTGTGGTG | 1 ± 0.033
TGTTGTTGTA | 1.015 ± 0.0081
TGTTGTTTTG | 1 ± 0.042
TGTTTAATTT | 1.03 ± 0.072
TGTTTAGGAG | 1.014 ± 0.0078
TGTTTAGGGG | 1.01 ± 0.025
TGTTTATGAC | 0.9847 ± 0.0081
TGTTTATTGG | 1.01 ± 0.065
TGTTTATTTA | 0.983 ± 0.0018
TGTTTCATTT | 0.989 ± 0.016
TGTTTCGGTT | 0.943 ± 0.044
TGTTTCTATT | 0.9925 ± 0.0055
TGTTTGAAAT | 0.998 ± 0.034
TGTTTGAGGT | 0.999 ± 0.033
TGTTTGCGAA | 1.01 ± 0.045
TGTTTGCTTT | 0.986 ± 0.023
TGTTTGGGGA | 0.997 ± 0.018
TGTTTGGGGT | 0.996 ± 0.055

Sequence | switch fluorescence ratio
TGTTTGGGTA | 1 ± 0.07
TGTTTGGTCA | 0.976 ± 0.065
TGTTTGGTTG | 1.01 ± 0.017
TGTTTGTAGA | 1.03 ± 0.018
TGTTTGTGCT | 0.983 ± 0.027
TGTTTGTTAC | 1.011 ± 0.0076
TGTTTGTTCG | 0.986 ± 0.021
TGTTTGTTCT | 0.976 ± 0.014
TGTTTGTTTG | 1 ± 0.036
TGTTTTAACT | 1.01 ± 0.017
TGTTTTACTG | 0.996 ± 0.015
TGTTTTAGTG | 0.994 ± 0.021
TGTTTTATAA | 0.995 ± 0.024
TGTTTTCATT | 0.973 ± 0.044
TGTTTTCTTT | 0.987 ± 0.019
TGTTTTGGCA | 0.9963 ± 0.0052
TGTTTTGGG | 0.992 ± 0.042
TGTTTTTAA | 1 ± 0.062
TTAAAAAACG | 1.04 ± 0.052
TTAAAAAAGA | 0.998 ± 0.013
TTAAAAAATG | 1.03 ± 0.042
TTAAAAATAC | 1.06 ± 0.025
TTAAAAATAT | 1.02 ± 0.053
TTAAAAATTT | 0.976 ± 0.025
TTAAAAGAT | 0.998 ± 0.035

Sequence | switch fluorescence ratio
TTAAAAGCGA | 0.974 ± 0.023
TTAAAAGCGG | 1.03 ± 0.013
TTAAAAGGAG | 1.01 ± 0.044
TTAAAAGGG | 0.9979 ± 0.007
TTAAAAGGGA | 1.02 ± 0.07
TTAAAAGTGT | 0.999 ± 0.026
TTAAAATGTA | 0.992 ± 0.03
TTAAAATGTG | 1.04 ± 0.059
TTAAACCCGC | 1.08 ± 0.019
TTAAAGCGGG | 1.01 ± 0.012
TTAAAGGGGC | 1.03 ± 0.06
TTAAAGTAGC | 1.02 ± 0.017
TTAAAGTCAT | 1.007 ± 0.0072
TTAAATAATT | 0.992 ± 0.019
TTAAATCGGC | 0.991 ± 0.043
TTAAATGTTG | 1.01 ± 0.059
TTAAATTCGC | 0.999 ± 0.0094
TTAAATTGCG | 0.994 ± 0.027
TTAACAGTGT | 0.964 ± 0.035
TTAACATGGG | 1 ± 0.033
TTAACGCAA | 3.6 ± 2
TTAACGCCTC | 1.0315 ± 0.001
TTAACGGGAG | 0.99 ± 0.019
TTAACGGGCT | 1.01 ± 0.048
TTAACGGTGT | 1.004 ± 0.005

Sequence | switch fluorescence ratio
TTAACTGCAC | 1.44 ± 0.056
TTAAGAAAAA | 1.01 ± 0.016
TTAAGAAGAC | 1.04 ± 0.018
TTAAGAATGG | 1.01 ± 0.014
TTAAGAATTC | 0.954 ± 0.021
TTAAGACGTA | 1.03 ± 0.063
TTAAGACGTC | 1.01 ± 0.0011
TTAAGAGGC | 1.01 ± 0.2
TTAAGAGGTC | 0.979 ± 0.018
TTAAGAGTCT | 1.02 ± 0.049
TTAAGAGTTA | 1.006 ± 0.01
TTAAGATTCT | 0.993 ± 0.037
TTAAGATTTT | 0.9935 ± 0.0053
TTAAGCATTT | 1.021 ± 0.0047
TTAAGCTTAG | 1.01 ± 0.015
TTAAGCTTTT | 0.989 ± 0.012
TTAAGGAAAA | 1.04 ± 0.071
TTAAGGACGG | 0.994 ± 0.065
TTAAGGGGCA | 1.02 ± 0.035
TTAAGGGGG | 1.03 ± 0.012
TTAAGGGGGG | 1 ± 0.031
TTAAGGTATT | 1.07 ± 0.12
TTAAGGTGTA | 1.1 ± 0.064
TTAAGTCATT | 0.986 ± 0.039
TTAAGTCCA | 0.995 ± 0.038

Sequence | switch fluorescence ratio
TTAAGTGAGG | 1.02 ± 0.016
TTAAGTGATT | 0.999 ± 0.025
TTAAGTTGTG | 0.9827 ± 0.0013
TTAAGTTTGG | 1.01 ± 0.027
TTAATAGAGT | 1 ± 0.018
TTAATAGATG | 1 ± 0.029
TTAATAGATT | 0.998 ± 0.021
TTAATAGTC | 1.05 ± 0.0041
TTAATCAGAT | 0.9533 ± 0.0093
TTAATCCCAG | 1.02 ± 0.021
TTAATCCTTG | 1.02 ± 0.034
TTAATCGTGT | 0.995 ± 0.037
TTAATCTGCC | 1.15 ± 0.025
TTAATGAAGG | 1 ± 0.025
TTAATGATTA | 0.994 ± 0.034
TTAATGGGAC | 1.012 ± 0.0033
TTAATGTT | 1.02 ± 0.018
TTAATGTTCA | 1 ± 0.031
TTAATGTTGG | 0.962 ± 0.046
TTAATTAAAA | 0.962 ± 0.043
TTAATTAGTT | 1.01 ± 0.023
TTAATTATGA | 0.991 ± 0.012
TTAATTATGG | 1 ± 0.034
TTAATTCTAC | 1.039 ± 0.0063
TTAATTGAAG | 0.958 ± 0.04
